These results are taken from the supplement of paper PMC5998384.

Series [1] deals with HeLa Kyoto. The series is described as follows: solubility in G1/S (NP-40 vs SDS abundance) (log2 ratio); higher = more soluble. Particulars: cell cycle stage: G1/S.
For series [2], the system named is HeLa Kyoto. The series is described as follows: solubility change mitosis vs G1/S (difference of NP-40 vs SDS log2 ratios) (log2 ratio difference); higher = more soluble in mitosis.
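Wherever solubility change mitosis vs G1/S (difference of NP-40 vs SDS log2 ratios) is given: synchronized HeLa Kyoto cells (double thymidine block for G1/S, nocodazole release for mitosis), protein amounts in NP-40 versus SDS lysates quantified by mass spectrometry, three biological replicates.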
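Wherever solubility in G1/S (NP-40 vs SDS abundance) is given: HeLa Kyoto cells arrested at G1/S by double thymidine block, proteins quantified by TMT10plex mass spectrometry in mild NP-40 versus SDS extracts, three biological replicates.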

For the sequence “MEKMSRVTTALGGSVLTGRTMHCHLDAPANAISVCRDAAQVVVAGRSIFKIYAIEEEQFVEKLNLRVGRKPSLNLSCADVVWHQMDENLLATAATNGVVVTWNLGRPSRNKQDQLFTEHKRTVNKVCFHPTEAHVLLSGSQDGFMKCFDLRRKDSVSTFSGQSESVRDVQFSIRDYFTFASTFENGNVQLWDIRRPDRCERMFTAHNGPVFCCDWHPEDRGWLATGGRDKMVKVWDMTTHRAKEMHCVQTIASVARVKWRPECRHHLATCSMMVDHNIYVWDVRRPFVPAAMFEEHRDVTTGIAWRHPHDPSFLLSGSKDSSLCQHLFRDASQPVERANPEGLCYGLFGDLAFAAKESLVAAESGRKPYTGDRRHPIFFKRKLDPAEPFAGLASSALSVFETEPGGGGMRWFVDTAERYALAGRPLAELCDHNAKVARELGRNQVAQTWTMLRIIYCSPGLVPTANLNHSVGKGGSCGLPLMNSFNLKDMAPGLGSETRLDRSKGDARSDTVLLDSSATLITNEDNEETEGSDVPADYLLGDVEGEEDELYLLDPEHAHPEDPECVLPQEAFPLRHEIVDTPPGPEHLQDKADSPHVSGSEADVASLAPVDSSFSLLSVSHALYDSRLPPDFFGVLVRDMLHFYAEQGDVQMAVSVLIVLGERVRKDIDEQTQEHWYTSYIDLLQRFRLWNVSNEVVKLSTSRAVSCLNQASTTLHVNCSHCKRPMSSRGWVCDRCHRCASMCAVCHHVVKGLFVWCQGCSHGGHLQHIMKWLEGSSHCPAGCGHLCEYS [WDR24]”, in the series on HeLa Kyoto [1], the “solubility in G1/S (log2)” value is -0.232. Besides, in the series on HeLa Kyoto [2], the “solubility change mitosis (log2)” value is -0.106.
The matching figures for “MELATRYQIPKEVADIFNAPSDDEEFVGFRDDVPMETLSSEESCDSFDSLESGKQQDVRFHSKYFTEELRRIFIEDTDSETEDFAGFTQSDLNGKTNPEVMVVESDLSDDGKASLVSEEEEDEEEDKATPRRSRSRRSSIGLRVAFQFPTKKLANKPDKNSSSEQLFSSARLQNEKKTILERKKDCRQVIQREDSTSESEDDSRDESQESSDALLKRTMNIKENKAMLAQLLAELNSMPDFFPVRTPTSASRKKTVRRAFSEGQITRRMNPTRSARPPEKFALENFTVSAAKFAEEFYSFRRRKTIGGKCREYRRRHRISSFRPVEDITEEDLENVAITVRDKIYDKVLGNTCHQCRQKTIDTKTVCRNQGCCGVRGQFCGPCLRNRYGEDVRSALLDPDWVCPPCRGICNCSYCRKRDGRCATGILIHLAKFYGYDNVKEYLESLQKELVEDN [CDCA7L]”: -0.846 and 0.727.
In the case of “MELGKGKLLRTGLNALHQAVHPIHGLAWTDGNQVVLTDLRLHSGEVKFGDSKVIGQFECVCGLSWAPPVADDTPVLLAVQHEKHVTVWQLCPSPMESSKWLTSQTCEIRGSLPILPQGCVWHPKCAILTVLTAQDVSIFPNVHSDDSQVKADINTQGRIHCACWTQDGLRLVVAVGSSLHSYIWDSAQKTLHRCSSCLVFDVDSHVCSITATVDSQVAIATELPLDKICGLNASETFNIPPNSKDMTPYALPVIGEVRSMDKEATDSETNSEVSVSSSYLEPLDLTHIHFNQHKSEGNSLICLRKKDYLTGTGQDSSHLVLVTFKKAVTMTRKVTIPGILVPDLIAFNLKAHVVAVASNTCNIILIYSVIPSSVPNIQQIRLENTERPKGICFLTDQLLLILVGKQKLTDTTFLPSSKSDQYAISLIVREIMLEEEPSITSGESQTTYSTFSAPLNKANRKKLIESLSPDFCHQNKGLLLTVNTSSQNGRPGRTLIKEIQSPLSSICDGSIALDAEPVTQPASLPRHSSTPDHTSTLEPPRLPQRKNLQSEKETYQLSKEVEILSRNLVEMQRCLSELTNRLHNGKKSSSVYPLSQDLPYVHIIYQKPYYLGPVVEKRAVLLCDGKLRLSTVQQTFGLSLIEMLHDSHWILLSADSEGFIPLTFTATQEIIIRDGSLSRSDVFRDSFSHSPGAVSSLKVFTGLAAPSLDTTGCCNHVDGMA [C2ORF44]”, the “solubility in G1/S (log2)” value with HeLa Kyoto [1] was -0.00732. Moreover, the “solubility change mitosis (log2)” value in the series with HeLa Kyoto [2] was -0.0919.
